Data as given in article PMC5153404.

Experiments:
[1] = target: Recombinant mature human gC1qR (residues 74-282) (UniProt Q07021); assay: ELISA; settings: 2.5 μg/well gh protein, 90 min at 37°C and 90 min at 4°C, parent: est. 100, read off a plot
[2] = target: Recombinant mature human gC1qR (residues 74-282) (UniProt Q07021); assay: ELISA; gC1qR coated at 0.25, 0.5 and 1 μg/well; 2.5 μg/well of gh module or substitution mutant; 90 min at 37°C and 90 min at 4°C; detected with anti-MBP monoclonal antibody

Sequence of Recombinant mature human gC1qR (residues 74-282) (Q07021 74-282): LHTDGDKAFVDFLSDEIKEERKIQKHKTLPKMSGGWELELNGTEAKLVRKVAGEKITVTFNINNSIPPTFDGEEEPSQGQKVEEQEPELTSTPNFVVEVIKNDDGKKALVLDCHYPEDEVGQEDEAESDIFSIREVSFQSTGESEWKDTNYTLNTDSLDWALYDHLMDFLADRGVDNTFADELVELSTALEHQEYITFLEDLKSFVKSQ
Sequence of Recombinant globular head module of the human C1q B chain (ghB), MBP fusion (from UniProt P02746) T175L (P02746 117-253, stated change not applied): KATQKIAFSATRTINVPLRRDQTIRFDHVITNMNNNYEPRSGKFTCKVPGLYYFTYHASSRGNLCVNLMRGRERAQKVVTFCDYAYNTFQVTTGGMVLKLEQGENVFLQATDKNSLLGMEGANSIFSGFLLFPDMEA
Sequence of Recombinant globular head module of the human C1q B chain (ghB), MBP fusion (from UniProt P02746) R129A (P02746 117-253, stated change not applied): as above
Sequence of Recombinant globular head module of the human C1q C chain (ghC), MBP fusion (from UniProt P02747) R156E (P02747 115-245, stated change not applied): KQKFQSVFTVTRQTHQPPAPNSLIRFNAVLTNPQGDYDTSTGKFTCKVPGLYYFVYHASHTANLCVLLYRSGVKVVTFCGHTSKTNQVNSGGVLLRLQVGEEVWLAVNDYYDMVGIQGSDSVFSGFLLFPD
Sequence of Recombinant globular head module of the human C1q C chain (ghC), MBP fusion (from UniProt P02747) L170E (P02747 115-245, stated change not applied): as above
Sequence of Recombinant globular head module of the human C1q C chain (ghC), MBP fusion (from UniProt P02747) H101A (P02747 115-245, stated change not applied): as above

Substance | percent of parent ([1]; 0.25 μg/well gC1qR coated) | percent of parent ([1]; 0.5 μg/well gC1qR coated) | percent of parent ([1]; 1 μg/well gC1qR coated) | percent reduction in binding against wild-type ghA [2] | percent reduction in binding against wild-type ghB [2]
Recombinant globular head module of the human C1q B chain (ghB), MBP fusion (from UniProt P02746) R129A | 27 % binding | 33 % binding | 30 % binding | – | –
Recombinant globular head module of the human C1q C chain (ghC), MBP fusion (from UniProt P02747) H101A | 51 % binding | – | 79 % binding | – | –
ghA-R162A, MBP fusion (from UniProt P02745 23-245) (domain or fragment) | – | – | – | < 70% | –
ghB-H117D, MBP fusion (from UniProt P02746 28-253) (domain or fragment) | – | – | – | – | 60%

Results, then the substance that gave them:

percent of parent ([1]; 0.25 μg/well gC1qR coated) | percent of parent ([1]; 0.5 μg/well gC1qR coated) | percent of parent ([1]; 1 μg/well gC1qR coated) | percent reduction in binding against wild-type ghA [2] | percent reduction in binding against wild-type ghB [2] | Substance
62 % binding | 56 % binding | 68 % binding | – | – | Recombinant globular head module of the human C1q B chain (ghB), MBP fusion (from UniProt P02746) T175L
62 % binding | 91 % binding | 100 % binding | – | – | Recombinant globular head module of the human C1q C chain (ghC), MBP fusion (from UniProt P02747) L170E
81 % binding | 110 % binding | 110 % binding | – | – | Recombinant globular head module of the human C1q C chain (ghC), MBP fusion (from UniProt P02747) R156E
